Experimental data taken from publication PMC8034861.

Target: Alexa Fluor 488-PR30 peptide (human)
Assay: single-molecule TIRF motility assay, co-transport of peptide foci with motors; 1 μM fluorescent PR30 with KIF5B::GFP or TMR-dynein-dynactin-BICD2N on immobilised microtubules; motility buffer with 25 mM KCl, α-casein, 5 mM MgATP; 23 ± 1°C; foci of PR30 moving with processive motors scored on kymographs

Sequence of Alexa Fluor 488-PR30 peptide (human) (peptide, as listed by the source): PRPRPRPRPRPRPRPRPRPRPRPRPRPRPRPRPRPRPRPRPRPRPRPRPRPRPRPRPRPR

- percent of processive motor complexes transporting large foci of PR30: 8.1%
Substance: TMR-dynein-dynactin-BICD2N complex (from UniProt Q14204 1-4646; A0A287B8J2 1-1281)
